Test results published in US20060147420A1 (University of Texas, published 2006).
Where no end group is shown, it is not given here.

Target: T1, EGFRvIII (on U-87.ΔEGFRvIII cells) (human, UniProt P00533 25-1210)
T1 construct: whole, on cells; also called de2-7 EGFR; mutant EGFR
Assay: flow cytometry, membrane fluorescence staining of cell suspensions with 1 uM FITC-peptide for 30 min

B1: anti-EGFRvIII peptide (PEPCH1)-FITC (peptide)
peptide: HFLIIGFMRRALCGA
modifications: also: FITC label, position not given here
notes: Synthetic peptide after Campa et al., 2000; Used at 1 uM as a FITC conjugate; also called PEPHC1; PEPHC1 ligand
binding result: binds
